{"source": "FireProtDB (doi:10.1021/bi00485a005)", "parents": {"B1": {"name": "Guanyl-specific ribonuclease T1, P00651 (parent)", "chain": "MMYSKLLTLTTLLLPTALALPSLVERACDYTCGSNCYSSSDVSTAQAAGYQLHEDGETVGSNSYPHKYNNYEGFDFSVSSPYYEWPILSSGDVYSGGSPGADRVVFNENNQLAGVITHTGASGNNFVECT"}}, "data": [{"variants_of": "B1", "details": "Aspergillus oryzae (strain ATCC 42149 / RIB 40); pH 6.01; 25 °C; Urea; Fluorescence; MES 30 mM; NaCl 0.2 M; structure 1RN1; whole UniProt chain shown", "units": {"ddG of mutation (higher = less stable)": "kcal/mol", "denaturant m value": "kcal/mol/M", "denaturant midpoint (higher = more stable)": "M", "unfolding free energy": "kcal/mol"}, "values": [{"variant": "E84A", "ddG of mutation (higher = less stable)": 0.64, "denaturant m value": 1.34, "denaturant midpoint (higher = more stable)": 5.67, "unfolding free energy": 7.6}]}, {"variants_of": "B1", "details": "Aspergillus oryzae (strain ATCC 42149 / RIB 40); pH 8.01; 25 °C; Urea; Fluorescence; HEPPSO 30 mM; NaCl 0.2 mM; structure 1RN1; whole UniProt chain shown", "units": {"ddG of mutation (higher = less stable)": "kcal/mol", "denaturant m value": "kcal/mol/M", "denaturant midpoint (higher = more stable)": "M", "unfolding free energy": "kcal/mol"}, "values": [{"variant": "E84A", "ddG of mutation (higher = less stable)": -0.71, "denaturant m value": 1.36, "denaturant midpoint (higher = more stable)": 4.89, "unfolding free energy": 6.63}]}]}
